Tests used:
[1] = test system: T. cellulolyticus strains F09pyr+ and F09Δgh1-2; experiment: Halo assay for secretory cellulase by various beta-linked glucose oligosaccharides (CMC minimal medium, Congo Red); format: cell-based, Talaromyces cellulolyticus; conditions: 1 mM in CMC minimal medium, 30° C. for 36 hours
Description: The strains F09pyr+ and F09Δgh1-2 were each grown on the minimal medium containing glucose as the carbon source for 3 days. […] After the culture, a Congo Red solution obtained by mixing 50 mM sodium phosphate buffer (pH 7.0) and 2 mg/ml Congo Red (Nacalai Tesque) in a volume ratio of 10:1 was added to the plate so that the Congo Red solution covered the entire plate, and the plate was left to stand for 30 minutes at a room temperature. Then, the Congo Red solution on the plate was removed, and sodium phosphate buffer (50 mM, pH 7.0) was added to the plate so that the sodium phosphate buffer covered the entire plate. The plate was again left to stand for 30 minutes at a room temperature. Then, the sodium phosphate buffer on the plate was removed, the surface of the plate was dried lightly, and observation of halo was carried out.

[2] = Generation of gentiobiose from cellulosic substrate/glucose by culture supernatant containing BGL3A; format: biochemical; conditions: enzyme solution, no cellulosic substrate added, glucose 0-14.4 wt %, 50° C. for 24 hours
Description: (§1) The strains F09Δbgl3A and F09pyr+ were each inoculated into a 1/2 PDA plate, and cultured at 30° C. for 3 days. […] Sampling was appropriately carried out, cells were removed using a 0.22 μm syringe filter, and the obtained culture supernatant was used as an enzyme solution. Thereby, an enzyme solution derived from the strain F09Δbgl3A not containing BGL3A (hereinafter, also referred to as “-BGL3A”) and an enzyme solution derived from the strain F09pyr+ containing BGL3A (hereinafter, also referred to as “+BGL3A”) were prepared.
The reaction was carried out by placing 10 g of the reaction solution (Table 5) in a 50-ml tube and shaking the tube at 90 rpm at 50° C. for 24 hours.

[3] = Generation of gentiobiose from cellobiose by culture supernatant containing BGL3A; format: biochemical; conditions: enzyme solution, 50° C. for 24 hours
Description: as §1
The two enzyme solutions obtained in Example (5-2) were used to degrade cellobiose, which is a decomposition product of a cellulosic substrate, under conditions of containing a certain concentration of glucose, and the product was analyzed. The reaction was carried out by placing 10 g of the reaction solution (Table 6) in a 50-ml tube and shaking the tube at 90 rpm at 50° C. for 24 hours.

[4] = Reaction of purified GH1-2 with high-concentration glucose, products by ion-exchange chromatography; format: biochemical; conditions: 1.4 g/L enzyme
Description: The purified GH1-2 was added to a 40% glucose aqueous solution at a concentration of 1.4 g/L, and reaction was carried out at 40° C. for 24 hours, to thereby obtain a sample. This sample was diluted 1000-fold with ion-exchanged water, and subjected to ion-exchange chromatography, to thereby analyze the reaction product. As a result, generation of beta-linked glucose oligosaccharides such as gentiobiose by GH1-2 was confirmed (FIG. 4).
The purified GH1-2 obtained in Example (2-1) was added to a 560 g/L glucose solution at a concentration of 1.4 g/L, to thereby obtain a reaction mixture. The reaction mixture was stirred so as to be uniform, and then left to stand at a room temperature for 52 hours. Then, the reaction mixture was heated at 95° C. for 10 minutes, to thereby obtain a saccharide solution containing gentiobiose. It was confirmed by the ion-exchange chromatography mentioned above that the saccharide solution contains 35.04 g/L gentiobiose.

[5] = Reaction of GH1-2s with cellobiose, products by TLC and ion exchange chromatography; format: biochemical; conditions: 30 μg/mL enzyme, 2% cellobiose aqueous solution, 40° C. for 1 to 60 minutes
Description: The purified GH1-2 was added to a 2% cellobiose aqueous solution at a concentration of 30 μg/mL, and a reaction solution after reaction at 40° C. for 1 to 60 minutes was used as a sample solution. The sample solution in 3 μL portions was spotted and developed on a thin layer chromatography plate (Merck) having a silica layer having a thickness of 200 μm, a size of 20×20 cm, and an average pore diameter of 60 angstroms. The composition of the developing solvent was chloroform:methanol:pure water=30:20:5 by volume ratio. An aniline phthalate method for detecting a reducing group was used for color development detection. […]
The reaction mixture obtained by using the wild-type GH1-2 was subject to ion exchange chromatography under the conditions described in Example (2-2), and the reaction product was analyzed, and observation of the hydrolysis product and the transglycosylation product was carried out over time. […]
Similarly, the reaction mixture obtained by using the W363F mutant GH1-2 was subject to ion exchange chromatography under the conditions described in Example (2-2), the reaction product was analyzed, and observation of the hydrolysis product and the transglycosylation product was carried out over time, and the result was compared with that observed when using the wild-type GH1-2 was observed. […]

## O=C[C@H](O)[C@@H](O)[C@H](O[C@@H]1O[C@H](CO)[C@@H](O)[C@H](O)[C@H]1O)[C@H](O)CO [cellobiose, reference compound]
[1]
  complementation of the decrease in the ability for secretory production of cellulase due to deletion of the gh1-2 gene (halo): scarcely able to complement the decrease in the ability for secretory production of cellulase

B1: BGL3A: major extracellular-secretion type beta-glucosidase of T. cellulolyticus (SEQ ID NO: 38), tested as culture supernatant of strain F09pyr+ (protein, listed as Talaromyces cellulolyticus)
chain: MYSAFLLLLASATPIVSAQSASWSAAYSKATAALSKLSQNDKIGMVTGVGWGKGPCVGNTAAPSGISFPSLCIQDSPLGVRYANPVTAFPAGTNAGMTWDRTLMNQRGAALGAESKGLGVHVQLGPVAGPLGKIAQGGRGWEGFGTDPYLSGVAMIETISGMQSSGTQACAKHYIGNEQELNRESMSSNIDDRTLHELYLWPFADAVRANVASVMCSYNQINGTFSCENEESMTGILKTELGFPGYIMSDWDAQHTTVTSANSGLDMTMPGSDYSDTPSSVLWGQNLANAISSGQVAQSRLDDMVTRILAAWYLVGQDQGFPAVAFNSWTGGQASVNVTSNHNQVARAVARDSIVLLKNTNSTLPLNKPSSIAIIGTDAQTNPSGPNACTDRGCDTGTLAMGWGSGTCQFPYLTDPLTAIKTRAASDGTTITTSISDNGSAGASVAQSAEYAIVFINSDSGEGYITVEGVAGDRNNLDPWHSGNALVQSVAAVNKKTIVVIHSVGPVILETILAQPNVVAVVWAGIPGQESGSALTDILYGSTAPSGKLTYTIAKQASDYGTAVVSGSDNYPEGLFIDYRHFDKSNIEPRYEFGYGLSYTTFGYTNLAIDITVSTGPTTGQIVPGGPSDLFESVGTVTVQVANTGSVAGSEVAQLYIGLPSSAPSSPPKQLRGFDKLSLAAGASGTATFDLTRRDLSYWDVSKQKWVVPSGAFTVYVGASSRDIRLQGTFTPGGSSTTSTITSSKTSTTISTSVTTSSSTTAKTTTTSSTTSSAGPTQTPYGQCGGQGWTGPTVCSSGWTCKVTNQWYSQCLQ
[2]
  generation of gentiobiose from glucose: can generate gentiobiose from glucose in a concentration-dependent manner
[3]
  generation of gentiobiose from cellobiose: can generate gentiobiose from cellobiose

B2: GH1-2: beta-glucosidase of T. cellulolyticus (SEQ ID NO: 23), His-tag at the C-terminus, expressed in E. coli and purified (protein, listed as Talaromyces cellulolyticus)
chain: MGSVTSTNGETPQSKLPADFVWGYATASYQIEGAYDEDGRGPSIWDTFSKTPGKVEDGTNGDVACDSYHRTHEDIAILKQYGAKLYRFSLSWPRIIPLGGRNDPINQKGIDFYSKFIDDLHAAGIEPFVTLYHWDLPDELFKRYGGPLNKDEFVADYANFARIAFQSFGHKVKHWVTFNEPWCSSVLGFNIGKHAPGRTSDRKKNPVGDGVREPWIAGHSLLVAHGTAVDIYRKEFKPTQGGEIGITLNGDWAEPWDPEDPEDIEACTRKLEFAISWFADPIYLGKYPDSVVKQIGDRLPPLTPDEVALIKGSNDFYGMNHYCANYIRHREGEADPDDTAGNLDHLFEDKFGNSIGPETNCEWLRPHPLGFRKLLKWLSDRYGYPKIYVTENGTSIKGENDLPLEELLNDEFRVQYYRDYVGAMADAATFDGVNVKKYMAWSLMDNFEWSEGYQSRFGVTYVDYKDNQKRIPKKSALVIGELFNKYISKE
modifications: C-terminal His-tag
[4]; 40% glucose aqueous solution, 40° C. for 24 hours
  activity on glucose (generation of beta-linked glucose oligosaccharides such as gentiobiose): has a transglycosylation activity
[4]; 560 g/L glucose solution, room temperature for 52 hours
  gentiobiose contained in the saccharide solution after reaction: 35.04 g/L
[5]
  activity on cellobiose (reaction products by TLC): has not only a hydrolysis activity but also has a transglycosylation activity

— patent US11384379B2, “Method for producing a protein and disaccharide using a Talaromyces cellulolyticus” (AJINOMOTO CO., INC., priority 2017, dated 2022)
